Literature values in PMC3631546.

Target: His37 (UniProt position 37, IIGILHLILWI)
Assay: NMR
Details: membrane-bound tetrameric channel, no drug mentioned

**Q.** For “Influenza A M2 proton channel, transmembrane peptide (M2TM) (Influenza A virus (strain not stated))”, which pKa is on record?
**A.** Its pKa is 8.2.
